Consider 1 substance from paper PMC11272584 (Nature Metabolism, 2024).

Numbering of substitutions follows the chain as printed.

For test [1], the target named is T1, GIPR E291K (human) (UniProt P48546).
T1 sequence: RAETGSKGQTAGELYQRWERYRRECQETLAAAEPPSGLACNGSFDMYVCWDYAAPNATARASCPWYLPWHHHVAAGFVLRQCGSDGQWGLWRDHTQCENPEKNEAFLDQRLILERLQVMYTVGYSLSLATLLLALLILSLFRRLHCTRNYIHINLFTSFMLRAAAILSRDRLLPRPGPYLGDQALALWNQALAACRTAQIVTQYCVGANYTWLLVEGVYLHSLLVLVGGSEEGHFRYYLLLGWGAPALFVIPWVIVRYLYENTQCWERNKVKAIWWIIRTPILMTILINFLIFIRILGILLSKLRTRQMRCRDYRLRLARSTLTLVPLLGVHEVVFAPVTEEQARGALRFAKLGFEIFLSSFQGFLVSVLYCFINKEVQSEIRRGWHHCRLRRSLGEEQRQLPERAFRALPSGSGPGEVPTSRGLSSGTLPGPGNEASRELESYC

The target in test [2] is T2, GIPR L304R (human) (UniProt P48546).
T2 sequence: T1 sequence with K270E, L283R

The target of test [3] is T3, GIPR T25R (human) (UniProt P48546).
T3 sequence: T1 sequence with T4R, K270E

The target in test [4] is T4, GIPR I221M (human) (UniProt P48546).
T4 sequence: T1 sequence with I200M, K270E

Test [5] has as its target T5, GIPR T168A (human) (UniProt P48546).
T5 sequence: T1 sequence with T147A, K270E

For test [6], the target named is T6, GIPR R190Q (human) (UniProt P48546).
T6 sequence: T1 sequence with R169Q, K270E

For the substance “β-arrestin 2 (Rluc8-Arrestin-3-Sp1) (from UniProt P32121 1-409) (natural protein)”, the β-arrestin 2 recruitment (BRET) on stimulation with GIP(1-42): logEC50 (Arrestin) (log M (inferred)) in test [1] was -8.48; in test [2] it was -9.41; in test [3] it was -9.3; in test [4] it was -9.38; in test [5], -9.27; in test [6], -8.86.
